One data set addresses T1, ComFC (His6-ComFC) (Helicobacter pylori, UniProt O26008).
T1 construct: gene HP_1473; full length, 191 residues, His6 tag kept (six His codons added at 5' end; also called ComFC-6His), pET21a, E. coli BL21(DE3) Gold
T1 sequence (O26008 1-191): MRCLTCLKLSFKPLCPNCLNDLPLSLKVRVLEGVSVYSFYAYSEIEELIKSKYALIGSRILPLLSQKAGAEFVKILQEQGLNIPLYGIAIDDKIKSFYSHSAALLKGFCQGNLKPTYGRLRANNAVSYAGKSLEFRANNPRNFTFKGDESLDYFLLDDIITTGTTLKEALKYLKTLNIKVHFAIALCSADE
Kind of data set: differential scanning fluorimetry (SYPRO Orange). Format: binding. The settings on record: 20 mM Tris-Cl pH 7.5, 200 mM NaCl. (In general: In DSF a fluorescence change marks the thermal transition of the protein.)

Another data set concerns the target ComFC T165A (Helicobacter pylori 26695, UniProt O26008 1-191, T165A). Kind of data set: EMSA; no significant difference from WT. Particulars: protein: recombinant; label: 5'-Cy5. For orientation: In EMSA bound probe runs differently from free probe, usually more slowly.
For another data set, the target named is T2, ComFC WT (His6-ComFC) (Helicobacter pylori 26695, UniProt O26008 1-191).
T2 sequence: T1 sequence (O26008 1-191)
The experiment in a line: EMSA; EMSA: 10 mM Tris-HCl pH 7.5, 50 mM KCl, 1 mM DTT, 0.1 ug/ul BSA, 4 °C, 30 min; native 6% TBE-PAGE. The settings on record: protein: recombinant; tags: His6 (text: codons added at 5' end, also written ComFC-6His); label: 5'-Cy5.

As for `Nc1ncnc2c1ncn2[C@@H]1O[C@H](COP(=O)(O)OP(=O)(O)O)[C@@H](O)[C@H]1O` [ADP], the dTm result on ComFC (His6-ComFC) is recorded as “ADP addition also resulted in an increase in melting temperature”.

B1: XV2 62-mer ssDNA (ssDNA)
DNA: TGGGTGAACCTGCAGGTGGGCAAAGATGTCCTAGCAATGTAATCGTCAAGCTTTATGCCGTT
Consider B1, for which the binding result with ComFC T165A is “binds”. Also, in the data set with ComFC WT (His6-ComFC), the “apparent K (half saturation)” value is 300 nM.

The values above are taken from publication PMC9005727, “ComFC mediates transport and handling of single-stranded DNA during natural transformation” (Nature Communications, 2022).
